Test results taken from paper PMC8686072.

Target: DCLK1 KD (DCLK1 kinase domain lacking the inhibitory C-terminal tail) (human) (UniProt O15075)
Assay: SPR

Sequence of UniProt O15075 (O15075 390-647): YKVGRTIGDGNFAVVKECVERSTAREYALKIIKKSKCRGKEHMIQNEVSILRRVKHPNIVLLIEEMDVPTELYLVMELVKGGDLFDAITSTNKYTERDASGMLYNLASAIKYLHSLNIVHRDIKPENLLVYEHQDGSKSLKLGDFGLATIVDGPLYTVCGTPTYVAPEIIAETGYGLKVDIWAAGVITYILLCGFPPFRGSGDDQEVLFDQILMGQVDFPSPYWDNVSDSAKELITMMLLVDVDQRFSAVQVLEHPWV

Substance “DCLK1 AID peptide (C-terminal autoinhibitory domain of DCLK1 isoform 2)” has a Kd of 155 µM.
